Source: US9144596

Assays:
[1] = tested on: mutant (I-A,Y-A) APC peptide (1250-KVSSINQETAQTACVEDTPI-1269)
[2] = tested on: wild-type APC peptide (1250-KVSSINQETIQTYCVEDTPI-1269)

Substance: His-tagged pol-βwt protein (human pol-β, carboxyl-terminal hexahistidine tag, pET23d)
- dRP-lyase activity of pol-βwt (3'-end labeled U-DNA substrate) [1]: APC(I-A,Y-A) did not show any effect on the dRP-lyase activity of pol-βwt
- dRP-lyase activity of pol-βwt (3'-end labeled U-DNA substrate) [2]: a very efficient dRP-lyase activity of pol-βwt ..., which was blocked by APCwt peptide in a dose-dependent manner
